From the supplement of paper PMC10567573

B1: C10orf62 (parent)
chain: MLWVQRKRRRKETSECPSDKDKSP

Variants of: B1
Assay: protein stability index of a GFP-peptide fusion (GPS, HEK-293T) (PSI 1-6); higher = more stable
Conditions: c terminus: a fixed tail appended
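Also: lentivirally expressed fusions sorted by FACS into six bins by GFP to DsRed ratio, PSI derived from sequencing read proportions per bin multiplied by bin number.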

Protein stability index of substitutions, site by site:
R9: I 3.4; G 3.2; Q 3.2; F 3.64; V 3.18; M 3.63; C 2.81; L 3.08; A 3.71; T 3.49; H 3.32; K 2.73; P 2.26; N 3.18; D 3.62; E 3.71; Y 3.75
K11: N 3.11; F 2.73; G 2.9; L 3.55; T 2.73; E 3.06; H 2.72; R 3.39; M 2.71; W 2.45; I 2.9; C 2.46; P 3.34; A 4.09; Q 3.44; Y 2.31; D 3.46
D19: I 2.84; W 1.65; V 2.63; Q 2.65; P 2.61; F 2.57; M 3.44; C 2.76; H 2.77; S 2.37; A 2.77; L 1.98; N 2.92; E 2.46; Y 2.99
K20: M 3.38; P 3.19; N 4.29; V 3.27; A 2.74; I 3.7; H 2.97; T 3.35; D 4.06; G 3.29; S 2.73; Y 3.92; L 3.01; C 3.52; Q 2.46; F 2.12; R 2.81
D21: Y 2.32; K 4.07; Q 2.87; H 2.28; I 2.32; M 2.5; F 2.4; P 2.62; E 3.44; L 2.29; A 2.64; N 3.44; R 1.92; G 3.36
S18: C 2.77; R 3.21; G 3.58; E 2.88; V 2.9; H 2.85; Y 2.43; N 2.83; M 2.94; Q 3.42; D 3.07; T 2.75; I 2.41; W 2.63; A 3.23; K 2.77
W3: N 4.66; T 4.73; Q 3.13; Y 2.77; R 4.46; S 4.87; P 5.09; M 3.46
R10: L 2.78; F 2.33; N 3.78; E 3.86; K 3.41; M 3.13; A 3.85; P 4.27; T 3.79; Y 2.78; Q 3.12; H 3.45; S 3.21; D 4.11; C 2.51; W 2.89
S14: F 3.12; G 3.1; R 2.55; D 3.12; W 2.94; N 3.14; M 3.31; V 3.14; I 2.74; E 3.2; A 3.82; Y 2.44; T 2.55; H 2.71
R6: D 3.9; Q 3.27; T 3.13; G 3.54; W 3.21; E 4.01; L 3.11; I 3.21; N 3.87; K 3.13; H 2.88; V 2.95; F 3.11; C 2.27; S 3.42; M 3.49
P24: A 3.72; F 2.46; D 3.28; C 3.2
K22: E 2.83; G 2.97; V 3.63; F 2.66; C 2.32; S 3.18; I 2.61; M 3.06; N 3.47; L 3.2; A 4.4; D 2.48; P 3.58; T 3.48; Y 3.12
P17: Q 3.36; H 2.81; W 2.86; M 3.44; A 4.1; C 2.74; Y 2.27; F 2.51; I 2.96; D 2.6; R 2.52; T 3.08; N 3.23; L 2.98; S 2.92; E 2.41
K7: R 3.29; T 3.15; W 2.49; I 1.95; V 2.69; P 3.97; G 3.23; Y 1.57; L 1.73; S 3.85; A 3.08; N 3.9; C 2.31; F 2.73; D 3.97; M 3.06; Q 3.74; H 3.69
Q5: S 3.85; W 1.93; N 3.44; L 2.4; D 4.23; Y 2.8; I 2.21; C 2.61; K 4.1; P 3.11; F 2.67; A 3.98; M 2.62; H 2.97
E12: H 3.16; Q 3.37; L 3.02; P 3.67; V 2.93; R 3.7; G 2.49; S 3.45; D 2.39; W 2.5; T 2.92; M 2.67; Y 2.68; F 2.5; C 2.7; K 3.44; A 3.13; I 2.39; N 2.67
T13: K 3.55; V 4.26; Y 2.07; W 2.75; E 2.99; S 2.25; G 2.15; P 3.04; H 3.39; C 2.42; D 2.3; I 2.52; R 3.48; L 3.4; Q 2.58
R8: E 5.08; Q 4.1; C 3.34; F 3.05; M 3.74; D 3.52; G 4.16; Y 3.19; S 3.91; A 3.9; N 3.78; L 2.51; I 3.36; H 3.89; K 3.15; T 2.95
E15: K 2.74; D 3.26; L 2.84; T 2.95; Y 2.76; V 3.29; I 1.92; C 3; H 2.92; F 3; Q 3.56; N 3.52; W 2.15; P 2.99; A 3.71; S 2.96; M 2.24; R 2.54
S23: P 2.88; K 2.27; L 3.38; H 2.77; E 2.48; I 2.4; V 3.58; Y 2.69; Q 3.42; T 3.05; F 2.5; A 3.2; W 1.92; M 3.39; G 3.25; D 3.49; R 2.88; C 3.15; N 3.29
C16: L 2.53; G 2.43; N 3.16; V 2.81; I 2.95; M 3.84; E 3.25; H 3.11; S 4.01; K 3.41; W 2.16; Q 3.75; P 2.16; R 3.35; Y 3.1; F 2.29
V4: H 3.86; N 3.87; K 3.56; W 2.57; M 2.52; T 2.73; Y 2.71; E 4.56; P 3.11; A 4.6; F 2.94; G 3.89; C 3.91; I 2.87
